The source of these data is patent US20110105407A1.

This experiment has as its target proMMP-9 (UniProt P14780). Kind of experiment: cell-based or functional assay.

proMMP-9, sequence (P14780 20-707 limits assumed): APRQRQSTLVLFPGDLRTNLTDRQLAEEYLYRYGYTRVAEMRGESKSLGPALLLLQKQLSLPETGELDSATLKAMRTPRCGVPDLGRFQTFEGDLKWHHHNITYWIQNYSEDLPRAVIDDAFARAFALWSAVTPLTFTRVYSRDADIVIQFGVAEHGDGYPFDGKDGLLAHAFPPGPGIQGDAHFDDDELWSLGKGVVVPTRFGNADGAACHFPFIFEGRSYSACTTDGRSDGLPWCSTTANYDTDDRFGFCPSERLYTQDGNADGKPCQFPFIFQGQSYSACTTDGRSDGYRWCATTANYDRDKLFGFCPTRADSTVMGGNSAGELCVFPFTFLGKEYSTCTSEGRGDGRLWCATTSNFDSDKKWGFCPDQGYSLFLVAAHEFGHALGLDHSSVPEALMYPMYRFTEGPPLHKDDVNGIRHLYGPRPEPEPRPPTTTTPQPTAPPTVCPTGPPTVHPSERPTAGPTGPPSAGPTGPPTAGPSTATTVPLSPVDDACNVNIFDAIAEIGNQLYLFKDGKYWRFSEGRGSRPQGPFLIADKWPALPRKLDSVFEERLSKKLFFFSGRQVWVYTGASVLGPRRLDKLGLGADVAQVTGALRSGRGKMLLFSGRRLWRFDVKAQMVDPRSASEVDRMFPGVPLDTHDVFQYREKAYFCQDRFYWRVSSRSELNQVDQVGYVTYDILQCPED

Substance “TIMP-1-GPI (from UniProt P01033 24-207; P19256 202-237)” registered a release of proMMP-9 from RCC-53 into the medium (gelatinase zymography); concentration from which a decrease was seen of 10 ng/mL.
